B1: Hairpin Ribozyme (parent)
chain: GUCCUCUUUCACGUGCGCGUGAAAGAGAGAAGUGAACCAGAGAAACACACGUUGUGGUAUAUUACCUGGUA

Variants of: B1
Experiment: self-cleavage, relative activity (ratio to wild type); higher = more cleavage; co-transcriptional

Compared with A41G A59U, A41C U70G is higher in self-cleavage: 0.138 for the first, 0.91 for the second.

First: A41C U70A
Second: A41U G69A
The self-cleavage of the first is higher: 0.732 for the first, 0.685 for the second.

First: A41U G69U
Second: A41U G69C
The self-cleavage of the first is lower: 0.348 for the first, 0.55 for the second.

First: A41U A44C
Second: A41U A44G
The self-cleavage of the first is lower: 0.115 for the first, 0.153 for the second.

First: A41U A64G
Second: A41U A64U
The self-cleavage of the first is higher: 0.372 for the first, 0.258 for the second.

Going from A41U A64C to A41G A64G, the self-cleavage rises from 0.153 to 0.326.

Compared with A41G G51C, G42A U60A is lower in self-cleavage: 0.677 for the first, 0.0887 for the second.

Going from G40U A44U to A41G A43C, the self-cleavage rises from 0.142 to 0.285.

Compared with A41G A43U, A41G A61U is higher in self-cleavage: 0.152 for the first, 0.195 for the second.

First: A41G A61C
Second: A41G A47G
The self-cleavage of the first is higher: 0.299 for the first, 0.0362 for the second.

Compared with G40U U70C, A41C C48U is higher in self-cleavage: 0.12 for the first, 0.183 for the second.

Compared with G42C A71G, G42C A71U is lower in self-cleavage: 0.339 for the first, 0.142 for the second.

First: A41U U60A
Second: G42C G56C
The self-cleavage of the first is higher: 1.37 for the first, 0.159 for the second.

Compared with G42C G57U, A41G U53G is higher in self-cleavage: 0.146 for the first, 1.05 for the second.

Going from A41G C66A to A41G C66U, the self-cleavage rises from 0.355 to 0.682.

Compared with A41U C46G, A41U U70G is higher in self-cleavage: 0.133 for the first, 1.1 for the second.

First: A41U U70A
Second: G40U G51C
The self-cleavage of the first is higher: 0.776 for the first, 0.104 for the second.

Compared with A41U C50G, A41C A64G is lower in self-cleavage: 0.756 for the first, 0.173 for the second.

First: G42C U53C
Second: G42C A45U
The self-cleavage of the first is higher: 0.491 for the first, 0.124 for the second.

Compared with G42C A45G, A41U A43U is higher in self-cleavage: 0.095 for the first, 0.187 for the second.

Compared with A41U G57U, G42C A44G is lower in self-cleavage: 0.493 for the first, 0.137 for the second.

Going from G42C A44C to G42C A44U, the self-cleavage rises from 0.0939 to 0.174.

First: A41U G42C
Second: A41U U62G
The self-cleavage of the first is higher: 0.464 for the first, 0.202 for the second.

Compared with A41U U62A, A41U U62C is higher in self-cleavage: 0.143 for the first, 0.711 for the second.

Going from G42A A43C to G42A G56C, the self-cleavage falls from 0.127 to 0.105.

Going from A41U U58C to G42C C46U, the self-cleavage falls from 1.41 to 0.12.

Going from A41G U55G to A41G U62C, the self-cleavage rises from 0.138 to 0.198.

Compared with A41G U62A, G42C U62A is higher in self-cleavage: 0.0775 for the first, 0.102 for the second.

Going from A41C G42A to G40U U58A, the self-cleavage falls from 0.805 to 0.155.

First: G40U C65A
Second: G42C C65A
The self-cleavage of the first is lower: 0.158 for the first, 0.21 for the second.

Compared with A41U G56A, A41U G56U is lower in self-cleavage: 0.285 for the first, 0.125 for the second.

Going from G42C U58C to A41C U55C, the self-cleavage rises from 0.185 to 0.484.

Going from G42A G69A to A41C, the self-cleavage rises from 0.112 to 1.21.

First: A41U
Second: A41G
The self-cleavage of the first is higher: 1.29 for the first, 0.913 for the second.

First: A41C A71U
Second: A41C A71G
The self-cleavage of the first is lower: 1.18 for the first, 1.26 for the second.

Compared with A41G U52G, A41U A49C is lower in self-cleavage: 1.15 for the first, 0.238 for the second.

Going from A41U A49G to G42A U67G, the self-cleavage falls from 1.06 to 0.125.

Going from G42A U67A to G42C A64G, the self-cleavage rises from 0.219 to 0.232.

Going from A41G C65U to A41C C50A, the self-cleavage falls from 1.05 to 0.634.

Going from G40U G56A to G40U G56C, the self-cleavage falls from 0.174 to 0.147.

Going from G42A U53G to G42A U53C, the self-cleavage rises from 0.237 to 0.388.

For A41G C48U, the self-cleavage was 0.162.

Source: the RNAGym collection of RNA variant scans (doi:10.7554/elife.80360)
